The record followed here is paper doi:10.1101/2023.05.01.538945.

The term stoichiometry N denotes a count of units in the complex or per binding partner.

Assay [1] has as its target SUMO2-tagged Bacillus cereus VD045 GajAB complex (Bacillus cereus VD045) (UniProt J8H9C1). Description: cryo-EM structure.
The target of assay [2] is Bacillus phage Phi3T Gabija anti-defense 1 (Gad1) (Bacillus phage Phi3T). Description: cryo-EM structure.
Assay [3] deals with Bacillus cereus VD045 GajB (Gabija protein B), untagged, co-expressed with GajA (Bacillus cereus VD045) (UniProt J8HQ06). Description: crystal structure.

Chain of Bacillus phage Phi3T Gabija anti-defense 1 (Gad1) (natural protein) (A0A1P8CWZ3 whole entry): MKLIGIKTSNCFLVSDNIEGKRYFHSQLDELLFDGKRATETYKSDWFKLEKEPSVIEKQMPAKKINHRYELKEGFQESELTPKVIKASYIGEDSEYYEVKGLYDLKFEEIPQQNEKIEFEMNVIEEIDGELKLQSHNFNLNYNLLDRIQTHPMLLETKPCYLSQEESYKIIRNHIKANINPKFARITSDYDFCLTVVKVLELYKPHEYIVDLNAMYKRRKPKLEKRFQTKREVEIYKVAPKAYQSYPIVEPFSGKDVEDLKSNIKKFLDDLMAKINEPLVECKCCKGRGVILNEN
Chain of SUMO2-tagged Bacillus cereus VD045 GajAB complex (Bacillus cereus VD045) (J8H9C1 2-578, chain 1 of 2): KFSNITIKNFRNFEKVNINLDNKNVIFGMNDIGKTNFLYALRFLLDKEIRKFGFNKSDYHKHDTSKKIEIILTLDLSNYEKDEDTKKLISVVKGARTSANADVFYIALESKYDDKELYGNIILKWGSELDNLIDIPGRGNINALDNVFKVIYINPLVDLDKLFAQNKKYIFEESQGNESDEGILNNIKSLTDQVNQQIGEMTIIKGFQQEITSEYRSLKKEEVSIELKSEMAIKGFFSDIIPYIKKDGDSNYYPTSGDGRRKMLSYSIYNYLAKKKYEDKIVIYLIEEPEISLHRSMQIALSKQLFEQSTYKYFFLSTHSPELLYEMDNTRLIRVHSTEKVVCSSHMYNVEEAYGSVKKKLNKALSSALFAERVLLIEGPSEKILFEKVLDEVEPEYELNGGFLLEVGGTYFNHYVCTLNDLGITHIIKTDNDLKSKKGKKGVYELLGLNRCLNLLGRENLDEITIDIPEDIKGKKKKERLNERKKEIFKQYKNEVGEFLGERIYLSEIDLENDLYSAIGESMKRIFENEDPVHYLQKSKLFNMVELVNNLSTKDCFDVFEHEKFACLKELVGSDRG
Chain of SUMO2-tagged Bacillus cereus VD045 GajAB complex (Bacillus cereus VD045) (J8HQ06 2-494, chain 2 of 2, further chain): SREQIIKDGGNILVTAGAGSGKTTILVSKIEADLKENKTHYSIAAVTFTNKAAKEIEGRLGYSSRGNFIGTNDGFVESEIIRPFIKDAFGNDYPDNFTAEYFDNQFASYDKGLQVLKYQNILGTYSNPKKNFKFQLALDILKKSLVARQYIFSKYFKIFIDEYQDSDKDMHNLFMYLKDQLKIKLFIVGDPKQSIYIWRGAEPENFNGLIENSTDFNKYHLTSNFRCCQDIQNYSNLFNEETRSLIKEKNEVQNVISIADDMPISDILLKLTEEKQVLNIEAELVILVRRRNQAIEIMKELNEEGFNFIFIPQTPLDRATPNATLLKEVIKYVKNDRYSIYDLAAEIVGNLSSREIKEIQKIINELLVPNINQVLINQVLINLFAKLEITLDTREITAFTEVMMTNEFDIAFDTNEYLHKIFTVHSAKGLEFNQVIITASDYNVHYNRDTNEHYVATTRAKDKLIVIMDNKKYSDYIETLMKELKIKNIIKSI

As for “Bacillus phage Phi3T Gabija anti-defense 1 (Gad1) (natural protein)”, the stoichiometry N (Gad1 per 4:4 GajAB assembly) in assay [1] was 8. Moreover, the stoichiometry N in assay [2] worked out at 8.

“Bacillus cereus VD045 GajB (Gabija protein B), untagged, co-expressed with GajA (from UniProt J8HQ06 2-494) (enzyme)” displayed a stoichiometry N in assay [3] of 2.
